These results are taken from patent publication US20260250341A1.

Numbering of substitutions follows the chain as printed. Names may count otherwise.

For assay [1], the target named is Recombinant Human FGFR1 alpha (IIIc) Fc Chimera Protein (R&D systems, 658-FR-050) (human) (UniProt P11362). In words: ELISA: FGFR1-Fc coated at 0.5 ug/ml, FGF sample at 80 ng/ml, biotinylated anti-FGF antibody BAM233 and streptavidin-HRP, blank subtracted; sample kept 6 h at 37 C.
The target is the same in assay [2]. Kind of assay: ELISA: FGFR1-Fc coated at 0.5 ug/ml, FGF sample at 80 ng/ml, biotinylated anti-FGF antibody BAM233 and streptavidin-HRP, blank subtracted; sample kept 0 h at 37 C. Background: An ELISA detects its analyte on a solid surface through an enzyme-linked reagent.
Assay [3] shares this target. Kind of assay: ELISA: FGFR1-Fc coated at 0.5 ug/ml, FGF sample at 80 ng/ml, biotinylated anti-FGF antibody BAM233 and streptavidin-HRP, blank subtracted; sample kept 24 h at 37 C.
For assay [4] the target is unchanged. In words: ELISA: FGFR1-Fc coated at 0.5 ug/ml, FGF sample at 80 ng/ml, biotinylated anti-FGF antibody BAM233 and streptavidin-HRP, blank subtracted; sample kept 48 h at 37 C.

Recombinant Human FGFR1 alpha (IIIc) Fc Chimera Protein (R&D systems, 658-FR-050) (human), sequence (P11362 22-376, change not shown): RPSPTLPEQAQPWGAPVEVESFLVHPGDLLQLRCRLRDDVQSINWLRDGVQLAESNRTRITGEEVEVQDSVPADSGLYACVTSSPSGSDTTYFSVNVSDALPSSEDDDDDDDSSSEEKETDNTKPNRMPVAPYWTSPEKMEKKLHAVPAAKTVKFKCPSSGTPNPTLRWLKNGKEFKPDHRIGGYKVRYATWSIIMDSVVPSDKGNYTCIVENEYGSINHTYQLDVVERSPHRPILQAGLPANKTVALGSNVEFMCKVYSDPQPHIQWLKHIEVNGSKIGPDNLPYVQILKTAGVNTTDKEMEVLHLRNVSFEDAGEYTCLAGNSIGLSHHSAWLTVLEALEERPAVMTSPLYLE

B1: FGF320 (FGF1 + FGF2-CHIMERA_Pig) (ligand)
chain: MANYKKPKLLYCSNGGHFLRIHPDGRVDGVREKSDPHIKLQLQAEERGVVSIKGVCANRYLAMDTSGLLYGSQTPSEECLFLERLEENHYNTYTSKKHAEKNWFVGLKKNGSCKRGPRTHYGQKAILFLPLPV
For the molecule B1, the Absorbance (450 nm) (absorbance (450 nm)) is 0.9 in assay [1], 2.1 in assay [2], 0.7 in assay [3] and 0.6 in assay [4].

B2: FGF323 (FGF1 + FGF2-CHIMERA_Pig_C12S; Q43I; A62C; H89G; C113A) (ligand)
chain: B1 chain with C12S, Q43I, A62C, H89G, C113A
Turning to B2, the Absorbance (450 nm) (absorbance (450 nm)) in assay [1] was 2.4; in assay [2], 2.5; in assay [3], 2.3; in assay [4], 2.3.
